Measurements reported in US11643670B2, “Methods of enhancing chromosomal homologous recombination” (Massachusetts Institute of Technology, priority 2018, dated 2023).

What was measured:
[1] = test system: RAD51 puncta; assay: Immunocytochemistry for RAD51 puncta in zygotes; assay type: cell-based, mouse
Experimental: Zygotes were fixed overnight at 4° C. in 4% PFA+0.1% Tween-20 in PBS and then briefly transferred to acidified Tyrode's (Sigma T1788) to remove the zona. After washing in PBS+0.1% Tween-20 (PBST), zygotes were permeabilized in PBS+1% Triton X-100 for 1 hour at 4° C. and then blocked for 1 hour at room temperature in blocking solution (PBS+3% BSA+5% normal goat serum). Primary antibody (rabbit anti-RAD51, Abcam ab63801, 1:500) was diluted in blocking solution and applied to coverslips overnight at 4° C. Cells were washed 3 times in PBST before application of secondary antibody (goat anti-rabbit IgG conjugate, Alexa Fluor 488, ThermoFisher A-11008) diluted in blocking solution for 1 hour at room temperature. Nuclei were counterstained with DAPI and coverslips were mounted to slides with Fluoromount Aqueous Mounting Medium (Sigma F4680). Cells were imaged on an Olympus Fluoview FV1000 confocal microscope with a 60× oil immersion objective and variable digital zoom. Raw image files were exported to FIJI^41 for Z-projection (sum slices), channel splitting, and scale bar generation.
Nonetheless, to more directly test the timing of zygotic ICHR, immunocytochemistry (ICC) was performed for RAD51 in uninjected, RAD51-injected, Cas9-injected (with Chd2-targeting crRNA), and Cas9- and RAD51-injected zygotes at three time points: G1 [9 hours post-fertilization (hpf), 1-hour post-injection (hpi)], G2 (14hpf, 6hpf, post S-phase), and M-phase (16hpf, 8hpi).

[2] = test system: R1684H locus; assay: Genotyping of F1 offspring of F0 Chd2^R1684H/R1684H animals made by the IVF strategy; assay type: in vivo, mouse; settings: F0 homozygotes (IVF strategy including RAD51) crossed with wildtype C57Bl/6N
Experimental: Tail snips (˜0.5 cm length) were collected from animals, placed in 75 μL alkaline lysis buffer (25 mM NaOH, 0.2 mM EDTA), and incubated at 95° C. for 30 minutes. Digestion was stopped via addition of 75 μL neutralization buffer (40 mM Tris-HCl pH 5.0). Samples were stored at 4° C. until genotyping.
Chd2^R1684H genotyping was performed via a two-step, nested approach. Except for experiments described in FIGS. 3A-3G, all 8 μL of embryo DNA were used as input for the initial, long round of PCR. Genotyping of mouse pups and adult animals was performed using 2 μL of purified tail DNA. For all embryo genotyping, reactions mixtures were set up in a UV-sterilized laminar flow hood using sterile reagents and filter tips to avoid contamination. All PCR was performed using Biolase DNA Polymerase (Bioline), fresh aliquots of dNTPs (New England Biolabs), and 2% DMSO (final concentration). Primer pair #1 was used for FIGS. 1A-1E, FIGS. 2A-2E, FIGS. 3A-3G, FIG. 5, FIGS. 7A-7C, FIG. 8, and FIG. 9. All other experiments utilized primer pair #2 to further rule out large deletions that could disrupt primer binding sites. 20 cycles of amplification were performed using 30 second extension and annealing times and an annealing temperature of 67° C. Nested PCR was then performed using 2 μL of the initial 25 μL PCR reaction as input. […]

B1: RAD51: recombinant human strand exchange protein RAD51 (Creative Biomart RAD51-134H), transcript variant 4 (protein, UniProt Q06609 2-339, looked up)
DNA repair protein RAD51 …: AMQMQLEANADTSVEEESFGPQPISRLEQCGINANDVKKLEEAGFHTVEAVAYAPKKELINIKGISEAKADKILAEAAKLVPMGFTTATEFHQRRSEIIQITTGSKELDKLLQGGIETGSITEMFGEFRTGKTQICHTLAVTCQLPIDRGGGEGKAMYIDTEGTFRPERLLAVAERYGLSGSDVLDNVAYARAFNTDHQTQLLYQASAMMVESRYALLIVDSATALYRTDYSGRGELSARQMHLARFLRMLLRLADEFGVAVVITNQVVAQVDGAAMFAADPKKPIGGNIIAHASTTRLYLRKGRGETRICKIYDSPCLPEAEAMFAINADGVGDAKD
number of RAD51 puncta per zygote ([1]; G2 zygotes): single | zygotes Negative for RAD51 puncta ([1]; number of zygotes, G2 (14hpf)): 25 | zygotes Positive for RAD51 puncta ([1]; number of zygotes, G2 (14hpf)): 6 | F1 offspring heterozygous for the R1684H mutation [2]: 100%
